Experimental data reported in article PMC3405053.

Molecular target: MKP-3, endogenous in mouse liver (mouse (endogenous in C57BL/6 liver)) (UniProt Q9DBB1)
Assay: co-IP; liver lysates of C57BL/6 mice injected with adenoviruses (GFP or FOXO1 3A, plus shGFP or shMKP-3); MKP-3 immunoprecipitated with MKP-3 antibody-bound Exactra D matrix; western blot for FOXO1, quantified

Chain of UniProt Q9DBB1 (Q9DBB1 whole entry): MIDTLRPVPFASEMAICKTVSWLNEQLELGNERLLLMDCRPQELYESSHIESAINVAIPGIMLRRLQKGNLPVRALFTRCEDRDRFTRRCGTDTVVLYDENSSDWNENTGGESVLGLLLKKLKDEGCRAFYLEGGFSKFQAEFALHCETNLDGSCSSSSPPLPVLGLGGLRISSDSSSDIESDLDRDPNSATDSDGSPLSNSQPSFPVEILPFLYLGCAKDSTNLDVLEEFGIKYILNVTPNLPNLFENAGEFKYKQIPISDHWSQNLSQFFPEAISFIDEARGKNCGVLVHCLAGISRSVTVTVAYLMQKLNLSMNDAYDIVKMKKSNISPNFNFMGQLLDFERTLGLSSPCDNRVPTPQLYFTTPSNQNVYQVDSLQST

- fold of FOXO1/FOXO1 3A protein associated with MKP-3 compared to GFP control: 7.9 fold
Substance: FOXO1 3A (Akt phosphorylation resistant FOXO1 mutant), over-expressed in mouse liver (from UniProt Q9R1E0 1-652) (natural protein)
